# Measured values as given in paper PMC9825183, “A cap 0-dependent mRNA capture method to analyze the yeast transcriptome”.
# T1: IFIT1 (6xHis) (Homo sapiens, UniProt P09914 1-478)
# T1 sequence: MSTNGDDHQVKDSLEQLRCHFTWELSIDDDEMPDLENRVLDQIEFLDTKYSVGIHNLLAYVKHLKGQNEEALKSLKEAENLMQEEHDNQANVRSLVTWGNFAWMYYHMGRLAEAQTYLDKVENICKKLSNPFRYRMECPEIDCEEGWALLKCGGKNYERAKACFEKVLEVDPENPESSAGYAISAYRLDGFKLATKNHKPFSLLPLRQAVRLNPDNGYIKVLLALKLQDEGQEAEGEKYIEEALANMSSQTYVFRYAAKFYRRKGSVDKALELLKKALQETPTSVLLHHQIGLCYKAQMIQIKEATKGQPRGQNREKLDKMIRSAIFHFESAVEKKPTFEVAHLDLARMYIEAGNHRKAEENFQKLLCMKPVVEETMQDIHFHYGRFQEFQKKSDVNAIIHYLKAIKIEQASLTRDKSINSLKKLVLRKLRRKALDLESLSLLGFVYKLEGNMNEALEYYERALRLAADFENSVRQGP
# B1: cap 0 160-mer (ssRNA)
# RNA: GAAUACACGGAAUUCCUUUUUUUUUUUUUUUUUUUUUUUUAAGAAAGGCAGACUGCCACAUGCAGCGCCUCAUUUGGAUGUGUCUGGAGUCUUGGAAGCUUGACUACCCUACGUUCUCCUACAAAUGGACCUUGAGAGCUUGUUUGGAGGUUCUAGCAGG
# modifications: 5' cap 0 (m7Gppp), Vaccinia Capping System
# Key:
# [1] = test system: IFIT1 (His-SUMO removed) (Homo sapiens); assay: MST; conditions: apparent Kd; 10 nM RNA, protein up to 1 uM; 5' cap 0 (m7Gppp), Vaccinia Capping System; MST: PBS, 5% glycerol, 0.5 mM TCEP, 0.05% Tween20, 22 C. Pull-down: 50 mM Tris pH 7.5, 150 mM NaCl (wash 250 mM), 1 mM DTT, 5 mM imidazole, 0.01% Tween 20, 3 mM
# [2] = target: T1, IFIT1 (6xHis); assay: pull-down; Con-B; mix of four RNAs; poly(dI-dC) 2 ug/ml; 3 mM MgCl2; MST: PBS, 5% glycerol, 0.5 mM TCEP, 0.05% Tween20, 22 C. Pull-down: 50 mM Tris pH 7.5, 150 mM NaCl (wash 250 mM), 1 mM DTT, 5 mM imidazole, 0.01% Tween 20, 3 mM MgCl2, 2 ug/ml poly(dI-dC), 4 C; conditions: protein: recombinant; tags: 6xHis (pETG10a; tag described as N-terminal); single-stranded 5' end (predicted)
molecule,measurement,setting,value
Cap 0-100-mer (Cy5),Kd,[1],47 nM
B1,binding result,[2],binds
